# According to the RNAGym collection of RNA variant scans (doi:10.1073/pnas.2313332121):
# B1: TPR t1 (parent)
# chain: GACCAAUCUGCCCUCAGAGCUCGAGAACAUCUUCGGAUGCAGAGGAGGCAGGCUUCGGUGGCGCGAUAGCGCCAACGUCCUCAACCUCCAAUGCAUCCCACCACAUGAUGAUGCCUGAAGAGCCUUGGUUUUUUG
# Variants of: B1
# Test: polymerase ribozyme fitness, log enrichment relative to wild type (log ratio); higher = more active; in vitro selection for triplet polymerase activity
# Summary of the method: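 Libraries of mutants in each subunit of a heterodimeric triplet polymerase ribozyme were generated by PCR and transcribed. In triplicate, each went through one in vitro selection round: annealing with biotinylated primer, partner subunit and triplets; frozen incubation at −7 °C; gel excision of extended constructs; streptavidin-bead capture; RT-PCR. Fitness, taken from Illumina sequencing of input and output libraries, is the logarithm of a genotype's enrichment over wild-type enrichment, averaged across replicates with inverse-variance weights. The logarithm is base 2, and genotypes needed ≥10 input reads and ≥1 read per output to be kept.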
row,Variant,polymerase ribozyme fitness (log ratio)
1,GACCACUCUGCCCUCAGAGCUCGAGAACAUCUUCGGAUGCAGAGGAGGCAGGCUUCGGUGGCGCGAUAGCGCCAACGUCCUCAACCUCCAAUGCAUCCCACCACAUGAUGAUGCCUGUAGAGCCUUGGUUUUUUG [A6C A118U],0.712
2,GACCAAUCUGCCUUCAGAGCUCGAGAACAUCUUCGGAUGCAGAGGAGGCAGGCUUCGGUGGCGCGAUAGAGCUAACGUCCUCAACCUCCAAUGCAUCCCACCACAUGAUGAUGCCUGAAGAGCCUUGGUUUUUUG [C13U C70A C73U],-1.58
3,GACCAAUCUACCCUCAGAGCUCGAGAACAUCUUUGGAUGCAGAGGAGGCAGGCUUCGGUGGCGCGAUAGCGCCAACGUCCUCAACCGCCAAUGCAUCCCACCACAUGAUGAUGCCUGAAGAGCCUUGGUUUUUUG [G10A C34U U87G],-3.98
4,GACCAAUCUGCGCUCAGAGCUCGAGAACAUCUUCGGAUGCAGAGGAGGCAGGCUUCGGUGGCGCGAUAGCGCCAACGUCCUCAACCCCCAAUGCAUCCCACCACAUGAUGAUGCCUGAAGAGCCUUGGUUUUUUG [C12G U87C],0.621
5,GACCAAUCUGCCCUCAGAGCUCGAGAACAUCUUCGGAUGCAGUGGAGGCAGCCUUCGGUGGCGCGAUAGCGUCAACGUCCUCAACCUCCAAUGCAUCCCACCACAUGAUGAUGCCUGAAGAGCCUUGGUUUUUUG [A43U G52C C72U],-2.16
6,GACCAAGCUGCCCUCAGAGCUCGAGAACAUCUUCGGAUGCAGAGGAGGCAGGCUUCGGUGGCGCGAUAGCGCCAACCUCCUCAACCUCCAAUGCAUUCCACCACAUGAAGAUGCCUGAAGAGCCUUGGUUUUUUG [U7G G77C C97U U109A],-6.1
7,GACCAAUCUGCCCUCAGAGCUCGAGAACAUCUUCGGAUACAGAGGAGGCAGGCUUCGGUGGAGCGAUAGCGGCAACGUCCUCAACCUCCAAUGCAUCCCACCACAUGAUGAUGCCUGAAGAGCCUUGGUUUUUUG [G39A C62A C72G],-4.2
8,GACCAAUCUGCCCUCAGAGCUCGAGAACAUCUUCGGACUCAGAGGAGGCAGGCUUCGGUGGCGCGAUAGCGCCAACGUCCUCAACCUCCAAUGCAUCCCACCACAUGAUGAUGCCUGAAGAGCCUUGGUUUUUUG [U38C G39U],-1.44
9,GACCAAUCUGCCGUCAGAGCUUGAGAACAUCUUCGGAUGCAGAGGAGGCAGGCUUCGGUGGCGCGAUAGCGCCAACGUCCUCAACCUCCAAUGCAUCCCACCACAUGAUGAUGCCUGAAGAGCCUUGGUUUUUUG [C13G C22U],-3.6
10,GACUAAUCUGCCCUCAGAGCUCGAGAACAUCUUCGGAUGCAGAGGAGGCAGGCUUCGGUGGCGCGAUAGCGCCAACGUCCUCAACCUCCAAUGCAUCCCUCCACAUGAUGAUGCCUGAAGAGCCUUGGUUUUUUG [C4U A100U],-1.08
11,GACCAAUCUGCCCUCAGAGCUCGAGAACAUCUUCGGAUGCAGAGGAGGCAGGCUUCGGUGGCGCGAUAGGGCCAACGUCCUCAACCUCCAAUGCAUCCCACCACAUGAUGAUGCCUGAAAAGCCUUGGUUUUUUG [C70G G120A],-1.34
12,GACCAAUCUGCCUUCAGAGCUCGAGAACAUCUUCGAAUGCAGAGGAGGCAGGCUUCGGUGGCGCGAUAGCGCCAACGUCCUCAACCUCCAAUGCAUCCCACCACAUGAUGAUGCCUGAAGAGCCUUGGUUUUUUG [C13U G36A],-0.918
13,GACCAAUCUGCCCUCAGAGCUCGAGAACAUCUUCGGAUGCAGAGGAGGCAGGCUUCGGUGGCGCGAUAUCGCCAACGUCCUCAUCCUCCAAUGCAUCCCACCACAUGAUGAUGCCUGAAGAGCCUUGGUUUUUUG [G69U A84U],0.757
14,GACCAAUCUGCCCCCAGAGCUCGAGAACAUCUUCGGAUGCAGAGGAGGCAGGAUUCGGUGGCGCGAUAGCGCCAACGUCCUCAACCUCCAAUGCAUCCCACCACAUGAUGAUGCCUGAAGAGCCUUGGUUUUUUG [U14C C53A],-1.96
15,GACCAAUCUGCCCUCAGAGCUCGAGAACAUCUUCGGAUGCAGAGGAGGCAGGCUUCGGUGGCGCGAUAGCGCCAACGGCCUCAACCUCCAAUGCAUCCCACCACAUGAUGAUGCCUCAAGAGCCUUGGUUUUUUG [U78G G117C],-4.47
16,GACUAAUCUGCCCUCAGAGCUCGAGAACAUCUUCGGAUGCAGAGGAGGCAAGCUUCGGUGUCGCGAUAGCGCCAACGUCCUGAACCUUCAAUCCAUCCCACCACAUGAUGAUGCCUGAAGAGCCUUGGUUUUUUG [C4U G51A G61U C82G C88U G93C],-5.15
17,GACCAAUCUGCCCUCAGAGCUCGAGAACAUCUUCGGAUGCAGAGGAGGCAGGCUUCGGUGGCGUGAUAGCGCCAACGUCCUAAACCUCCAUUGCAUCCCACCACAUGAUGAUGCCUGAAGAGCCUUUGUUUUUUG [C64U C82A A91U G127U],-2.81
18,GACCAAUCUGCCCUCAGAGCUAGAGAACAUCUUCGGGUGCAGAGGAGGCAGGCUUCGGUGGCGCGAUAGCGCCAACGUCCACAACCUCCAAUGCAUCCCACCACAUGAUGAUGCCUGAAGCGCCUUGGUUUUUUG [C22A A37G U81A A121C],-6.04
19,GACCAAUCUGCCGUCAGAGCUCGAGAACAUCUUCGGUUGCACAGGAGGCAGGUUUCGGUGGCGCGAUAGCGCCAACAUCCUCAACCUCCAAUGCAUCCCACCACAUGAUGAUGCCUGAAGGGCCUUGGUAUUUUG [C13G A37U G42C C53U G77A A121G U130A],-1.06
20,GACCAAUCUGCCCUCAGAGCUCGAGAACAUCUUCGGAUGCAGAGAAGGCAGGCUUCGGUGGCGCGAUAGCGCGAACGUCCUCAAACUCCAAUGCAUCCCACCACAUGAUGAUGCCUGAAGAGCCUUGGUUUUUUG [G45A C73G C85A],-2.3
21,GACCAAUCUGCCCUCAGGGCUCGAGAACAUCUUCGGAUGCAGAGGAGGAAGGCUUCGGUGGCGCGAUAGCGCCAACGUUCUCAACCUCCAAUGCAUCCCACCACAUGAUGAUGCCUGAACAGCCUUGUUUUUUUG [A18G C49A C79U G120C G128U],-5.04
